Assay results published in the supplement of paper PMC10567573.

B1: ZNF263 (parent)
chain: KPYKCTLCGENFSHRSNLIRHQRI

Variants of: B1
Assay: protein stability index of a GFP-peptide fusion (GPS, HEK-293T) (PSI 1-6); higher = more stable
Conditions: c terminus: a fixed tail appended
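Also: lentivirally expressed fusions sorted by FACS into six bins by GFP to DsRed ratio, PSI derived from sequencing read proportions per bin multiplied by bin number.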

Row | Variant | protein stability index
1 | KPYKCTLCGENFSHRVNLIRHQRI [S16V] | 1.87
2 | KPYKCRLCGENFSHRSNLIRHQRI [T6R] | 2.96
3 | KPYKCCLCGENFSHRSNLIRHQRI [T6C] | 2.1
4 | KPYKCSLCGENFSHRSNLIRHQRI [T6S] | 3.17
5 | KPYKCGLCGENFSHRSNLIRHQRI [T6G] | 2.67
6 | KPYKCILCGENFSHRSNLIRHQRI [T6I] | 2.38
7 | KPYKCWLCGENFSHRSNLIRHQRI [T6W] | 2.53
8 | KPYKCLLCGENFSHRSNLIRHQRI [T6L] | 2.21
9 | KPYKCNLCGENFSHRSNLIRHQRI [T6N] | 2.6
10 | KPYKCMLCGENFSHRSNLIRHQRI [T6M] | 2.08
11 | KPYKCTLCGENFSRRSNLIRHQRI [H14R] | 2.41
12 | KPYKCTLCGENFSARSNLIRHQRI [H14A] | 2.56
13 | KPYKCTLCGENFSGRSNLIRHQRI [H14G] | 1.97
14 | KPYKCTLCGENFSCRSNLIRHQRI [H14C] | 2.68
15 | KPYKCTLCGENFSDRSNLIRHQRI [H14D] | 2.68
16 | KPYKCTLCGENFSWRSNLIRHQRI [H14W] | 1.43
17 | KPYKCTLCGENFSKRSNLIRHQRI [H14K] | 2.81
18 | KPYKCTLCGENFSYRSNLIRHQRI [H14Y] | 3.16
19 | KPYKCTLCGENFSVRSNLIRHQRI [H14V] | 2.43
20 | KPYKCTLCGENFSMRSNLIRHQRI [H14M] | 2.55
21 | KPYKCTLCGENFSHRSNTIRHQRI [L18T] | 1.72
22 | KPYKCTLCGENFSHRSNSIRHQRI [L18S] | 1.77
23 | KPYKCTLCGENFSHRSNCIRHQRI [L18C] | 3.22
24 | KPYKCTLCGENFSHRSNHIRHQRI [L18H] | 2.93

Row | Variant | protein stability index
25 | KPYKCTLCGENFSHRSNAIRHQRI [L18A] | 2.35
26 | KPYKCTLCGENFSHRSNPIRHQRI [L18P] | 1.88
27 | KPYKCTLCGENFSHRSNIIRHQRI [L18I] | 1.95
28 | KPYKCTLCGENFSHRSNMIRHQRI [L18M] | 1.93
29 | KPYKCTLCGENFSHRSNLIRHRRI [Q22R] | 3.17
30 | KPYKCTLCGENFSHRSNLIRHMRI [Q22M] | 3.43
31 | KPYKCTLCGENFSHRSNLIRHFRI [Q22F] | 2.35
32 | KPYKCTLCGENFSHRSNLIRHVRI [Q22V] | 2.29
33 | KPYKCTLCGENFSHRSNLIRHHRI [Q22H] | 3.09
34 | KPYKCTLCGENFSHRSNLIRHERI [Q22E] | 1.66
35 | KPYKCTLCGENFSHRSNLIRHGRI [Q22G] | 1.86
36 | KPYKCTLCGENFSHRSNLIRHYRI [Q22Y] | 2.91
37 | KPYKCTLCGENFSHRSNLIRHDRI [Q22D] | 2.01
38 | KPYKCTLCGENFSHRSNLIRHNRI [Q22N] | 2.61
39 | LPYKCTLCGENFSHRSNLIRHQRI [K1L] | 2.25
40 | HPYKCTLCGENFSHRSNLIRHQRI [K1H] | 2.47
41 | QPYKCTLCGENFSHRSNLIRHQRI [K1Q] | 2.38
42 | WPYKCTLCGENFSHRSNLIRHQRI [K1W] | 1.92
43 | YPYKCTLCGENFSHRSNLIRHQRI [K1Y] | 2.69
44 | FPYKCTLCGENFSHRSNLIRHQRI [K1F] | 2.56
45 | EPYKCTLCGENFSHRSNLIRHQRI [K1E] | 3.25
46 | KPYKCTLCGENFSHHSNLIRHQRI [R15H] | 2.15
47 | KPYKCTLCGENFSHNSNLIRHQRI [R15N] | 2.1
48 | KPYKCTLCGENFSHSSNLIRHQRI [R15S] | 1.38

Row | Variant | protein stability index
49 | KPYKCTLCGENFSHQSNLIRHQRI [R15Q] | 2.43
50 | KPYKCTLCGENFSHWSNLIRHQRI [R15W] | 2.54
51 | KPYKCTLCGENFSHDSNLIRHQRI [R15D] | 1.55
52 | KPYKCTLCGENFSHESNLIRHQRI [R15E] | 2.69
53 | KPYKCTLCGENFSHCSNLIRHQRI [R15C] | 2.34
54 | KPYKCTLIGENFSHRSNLIRHQRI [C8I] | 2.58
55 | KPYKCTLRGENFSHRSNLIRHQRI [C8R] | 1.73
56 | KPYKCTLDGENFSHRSNLIRHQRI [C8D] | 2.62
57 | KPYKCTLKGENFSHRSNLIRHQRI [C8K] | 3.61
58 | KPYKCTLTGENFSHRSNLIRHQRI [C8T] | 2.69
59 | KPYKCTLHGENFSHRSNLIRHQRI [C8H] | 2.1
60 | KPYKCTLFGENFSHRSNLIRHQRI [C8F] | 2.11
61 | KPYKCTLWGENFSHRSNLIRHQRI [C8W] | 1.88
62 | KPYKCTLCGENFSHRSNLIRHQRK [I24K] | 2.89
63 | KPYKCTLCGENFSHRSNLIRHQRS [I24S] | 2.53
64 | KPYKCTLCGENFSHRSNLIRHQRN [I24N] | 3.11
65 | KPYKCTLCGENFSHRSNLIRHQRH [I24H] | 2.45
66 | KPYKCTLCGENFSHRSNLIRHQRL [I24L] | 2.3
67 | KPYKCTLCGENFSHRSNLIRHQRD [I24D] | 3.09
68 | KPYKCTLCGENFSHRSELIRHQRI [N17E] | 3.31
69 | KPYKCTLCGENFSHRSKLIRHQRI [N17K] | 3.28
70 | KPYKCTLCGENFSHRSWLIRHQRI [N17W] | 2.07
71 | KPYKCTLCGENFSHRSMLIRHQRI [N17M] | 2.87
72 | KPYKCTLCGENFSHRSYLIRHQRI [N17Y] | 3.12

Row | Variant | protein stability index
73 | KPYKCTLCGENFSHRSQLIRHQRI [N17Q] | 2.9
74 | KPYKCTLCGENFSHRSFLIRHQRI [N17F] | 2.08
75 | KPYKCTLCGENFSHRSVLIRHQRI [N17V] | 1.7
76 | KPYKCTLCEENFSHRSNLIRHQRI [G9E] | 2.29
77 | KPYKCTLCKENFSHRSNLIRHQRI [G9K] | 2.05
78 | KPYKCTLCWENFSHRSNLIRHQRI [G9W] | 1.62
79 | KPYKCTLCDENFSHRSNLIRHQRI [G9D] | 2.01
80 | KPYKCTLCIENFSHRSNLIRHQRI [G9I] | 4
81 | KPYKCTLCLENFSHRSNLIRHQRI [G9L] | 1.16
82 | KPYKCTLCGEPFSHRSNLIRHQRI [N11P] | 1.8
83 | KPYKCTLCGEAFSHRSNLIRHQRI [N11A] | 2.72
84 | KPYKCTLCGEGFSHRSNLIRHQRI [N11G] | 2.52
85 | KPYKCTLCGEIFSHRSNLIRHQRI [N11I] | 3.18
86 | KPYKCTLCGESFSHRSNLIRHQRI [N11S] | 2.8
87 | KPYKCTLCGECFSHRSNLIRHQRI [N11C] | 3.11
88 | KPYKCTLCGEWFSHRSNLIRHQRI [N11W] | 2.25
89 | KPYKCTLCGENFSHRSNLIRHQAI [R23A] | 2.57
90 | KPYKCTLCGENFSHRSNLIRHQSI [R23S] | 2.28
91 | KPYKCTLCGENFSHRSNLIRHQNI [R23N] | 2.63
92 | KPYKCTLCGENFSHRSNLIRHQCI [R23C] | 4.48
93 | KPYKCTLCGENFSHRSNLIRHQHI [R23H] | 3.28
94 | KPYKCTLCGENFSHRSNLIRHQKI [R23K] | 3.08
